From patent US9187525B2, “Methods of treating ophthalmic diseases using NPR-B agonists” (Shire Orphan Therapies GmbH, dated 2015) come the findings set out here.

Numbered stars: 1 amine (or outer) side, 2 acyl side, 3 side chain; on linkers, the order of the positions; unused ones are H or OH. Square brackets hold non-standard residues; d marks the D form. Primed or numbered codes have the meaning given here. Ends that are not written are not given here. * marks the point of attachment. abu(pip) = (R)-2-amino-4-(piperidin-1-yl)butanoic acid, O=C([C@@H](CCN1CCCCC1)N[*:1])[*:2]; Pro(trans-4-NH2) = O=C([C@@H]1C[C@@H](N[*:3])CN1[*:1])[*:2]; Sni = (S)-nipecotic acid, O=C([C@H]1CCCN([*:1])C1)[*:2]; Bmf = rac-2-amino-3-phenyl-butyric acid; Fhy = Amino-piperidin-3-yl-acetic acid; Gly(cPent) = N[C@H](C(=O)O)C1CCCC1; Hyp = O=C(O)[C@@H]1C[C@@H](O)CN1; AR‑314‑145 = not defined here; AR‑314‑169 = not defined here; AR‑314‑170 = not defined here; AR‑314‑171 = not defined here; AR‑314‑172 = not defined here; AR‑385‑008 = not defined here; AR‑385‑017 = not defined here; AR‑385‑042 = not defined here; NMeL = CN[C@@H](CC(C)C)C(=O)O; AR‑385‑12 = not defined here; Phg = N[C@H](C(=O)O)c1ccccc1; orn(Me2) = not defined here; Octanoyl = CCCCCCCC(=O)*; Sni″ = not defined here; Az3 = not defined here; Che = not defined here; Fbz = not defined here; Oct = not defined here; aze = not defined here; hse = not defined here; leu = not defined here; mpa = not defined here; opa = not defined here; Occ = octanoic acid Where only a bound is given, the exact number is not on record here.

T1: natriuretic peptide receptor-B (human)
T1 chain: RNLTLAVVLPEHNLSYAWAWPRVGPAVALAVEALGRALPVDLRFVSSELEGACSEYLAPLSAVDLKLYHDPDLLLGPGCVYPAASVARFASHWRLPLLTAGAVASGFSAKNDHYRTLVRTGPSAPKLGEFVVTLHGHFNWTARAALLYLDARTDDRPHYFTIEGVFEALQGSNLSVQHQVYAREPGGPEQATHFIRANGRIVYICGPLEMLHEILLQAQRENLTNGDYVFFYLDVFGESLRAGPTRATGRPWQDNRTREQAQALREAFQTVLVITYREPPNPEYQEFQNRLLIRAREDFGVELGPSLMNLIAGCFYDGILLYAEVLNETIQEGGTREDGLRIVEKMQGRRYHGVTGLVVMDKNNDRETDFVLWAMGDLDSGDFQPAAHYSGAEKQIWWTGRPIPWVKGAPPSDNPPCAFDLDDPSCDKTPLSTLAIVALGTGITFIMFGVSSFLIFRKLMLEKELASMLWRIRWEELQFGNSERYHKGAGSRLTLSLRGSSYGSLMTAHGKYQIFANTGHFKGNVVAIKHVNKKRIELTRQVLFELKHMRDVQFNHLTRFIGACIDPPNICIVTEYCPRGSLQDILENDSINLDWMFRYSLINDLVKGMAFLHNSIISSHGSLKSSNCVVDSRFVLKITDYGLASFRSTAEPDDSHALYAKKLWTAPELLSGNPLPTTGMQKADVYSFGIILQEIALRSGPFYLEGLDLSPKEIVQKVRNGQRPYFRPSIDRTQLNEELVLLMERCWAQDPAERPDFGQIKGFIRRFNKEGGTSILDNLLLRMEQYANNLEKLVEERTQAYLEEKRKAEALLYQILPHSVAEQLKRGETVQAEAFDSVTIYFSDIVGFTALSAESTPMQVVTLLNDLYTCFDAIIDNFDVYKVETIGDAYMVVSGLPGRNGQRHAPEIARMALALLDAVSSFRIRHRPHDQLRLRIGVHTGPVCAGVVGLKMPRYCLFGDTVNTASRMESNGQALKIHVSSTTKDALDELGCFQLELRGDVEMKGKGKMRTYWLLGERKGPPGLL

B1: JAL-1869-2 (peptide)
peptide: [AR‑314‑170]F[leu]L[Hyp][NMeL]DRI-NH2
modifications: reading uncertain; also: printed as (AR-314-170)-Phe-leu-Leu-Hyp-Nml-Asp-Arg-Ile-NH2
B2: JAL-1880 (peptide)
peptide: [AR‑385‑042][leu]L[Hyp][NMeL]DRI-NH2
modifications: reading uncertain; also: printed as (AR-385-042)-leu-Leu-Hyp-Nml-Asp-Arg-Ile-NH2
B3: JAL-1873 (peptide)
peptide: [AR‑385‑008][leu]L[Hyp][NMeL]DRI-NH2
modifications: reading uncertain; also: printed as (AR-385-008)-leu-Leu-Hyp-Nml-Asp-Arg-Ile-NH2
B4: JAL-1884 (peptide)
peptide: Octanoyl-[Sni]FHL[Hyp][NMeL]DRI-NH2
modifications: not fully specified (some residues); printed as Occ-Sni-Phe-his-Leu-Hyp-Nml-Asp-Arg-Ile-NH2
B5: JAL-1870-2 (peptide)
peptide: [AR‑314‑171]F[leu]L[Hyp][NMeL]DRI-NH2
modifications: reading uncertain; also: printed as (AR-314-171)-Phe-leu-Leu-Hyp-Nml-Asp-Arg-Ile-NH2
B6: JAL-1886 (peptide)
peptide: [Occ][Sni]F[AR‑385‑017]L[Hyp][NMeL]DRI-NH2
modifications: reading uncertain; also: printed as Occ-Sni-Phe-(AR-385-017)-Leu-Hyp-Nml-Asp-Arg-Ile-NH2
B7: JAL-1874 (peptide)
peptide: [AR‑314‑172][leu]L[Hyp][NMeL]DRI-NH2
modifications: reading uncertain; also: printed as (AR-314-172)-leu-Leu-Hyp-Nml-Asp-Arg-Ile-NH2
B8: JAL-1850 (peptide)
peptide: [Occ][Sni]F[orn(Me2)]L[Pro(trans-4-NH2)][NMeL]VR[Che]
modifications: reading uncertain; also: printed as Occ-Sni-Phe-orn(Me2)-Leu-Tap-Nml-Val-Arg-Che
B9: JAL-1864 (peptide)
peptide: [Occ][Sni]F[leu]L[Hyp][NMeL][AR‑314‑145]RI-NH2
modifications: reading uncertain; also: printed as Occ-Sni-Phe-leu-Leu-Hyp-Nml-(AR-314-145)-Arg-Ile-NH2
B10: JAL-1851 (peptide)
peptide: [Oct][Sni]F[orn(Me2)]L[Hyp][NMeL]VR[Che]
modifications: reading uncertain; also: printed as Oct-Sni-Phe-orn(Me2)-Leu-Hyp-Nml-Val-Arg-Che
B11: JAL-1877 (peptide)
peptide: [Occ][Sni]F[AR‑385‑12]L[Hyp][NMeL]DRI-NH2
modifications: reading uncertain; also: printed as Occ-Sni-Phe-(AR-385-12)-Leu-Hyp-Nml-Asp-Arg-Ile-NH2
B12: JAL-1883 (peptide)
peptide: Octanoyl-[Sni]FTL[Hyp][NMeL]DRI-NH2
modifications: not fully specified (some residues); printed as Occ-Sni-Phe-thr-Leu-Hyp-Nml-Asp-Arg-Ile-NH2
B13: JAL-1868-2 (peptide)
peptide: [AR‑314‑169]F[leu]L[Hyp][NMeL]DRI-NH2
modifications: reading uncertain; also: printed as (AR-314-169)-Phe-leu-Leu-Hyp-Nml-Asp-Arg-Ile-NH2

The assay deals with T1, natriuretic peptide receptor-B. Description: cell-based or functional assay.
Regarding B1, the “EC50 group, cGMP in GTM-3 cells” value was not above 15 µM. For B2 the value was not above 5 µM. For B3 the value was not above 15 µM. For B4 the value was not above 5 µM; for B5, not above 15 µM. For [Occ][Sni]F[Fbz]L[Hyp][NMeL]DRI-NH2 (reading uncertain; also: printed as Occ-Sni-Phe-Fbz-Leu-Hyp-Nml-Asp-Arg-Ile-NH2) [JAL-1881], the “EC50 group, cGMP in GTM-3 cells” value is not above 5 µM. For [Occ][Sni]F[opa]L[Hyp][NMeL]DRI-NH2 (reading uncertain; also: printed as Occ-Sni-Phe-opa-Leu-Hyp-Nml-Asp-Arg-Ile-NH2) [JAL-1887] the value was not above 5 µM; for B6, not above 5 µM. Under [Occ][Az3]FGLKLDRI-NH2 (reading uncertain; also: printed as Occ-Az3-Phe-Gly-Leu-Lys-Leu-Asp-Arg-Ile-NH2) [JAL-0742] stands not above 15 µM. Take B7: the “EC50 group, cGMP in GTM-3 cells” value is not above 5 µM. Turning to [Occ][Sni]F[metO2]L[Hyp][NMeL]DRI-NH2 [JAL-1885], the “EC50 group, cGMP in GTM-3 cells” value was not above 5 µM.

For the molecule [Occ][Sni″]FGLKLDRI-NH2 (reading uncertain; also: printed as Occ-Sni-Phe-Gly-Leu-Lys-Leu-Asp-Arg-Ile-NH2) [JAL-0743], the “EC50 group, cGMP in GTM-3 cells” value is not above 5 µM. Under B8 stands not above 1 µM; under B9, not above 15 µM; under [Occ][Sni]F[leu]L[Hyp][NMeL][Bmf]RI-NH2 (reading uncertain; also: printed as Occ-Sni-Phe-leu-Leu-Hyp-Nml-Bmf-Arg-Ile-NH2) [JAL-1857], not above 15 µM.

As to [Oct][Sni]F[leu]L[Hyp][NMeL]VR[Che] (reading uncertain; also: printed as Oct-Sni-Phe-leu-Leu-Hyp-Nml-Val-Arg-Che) [JAL-1848], the “EC50 group, cGMP in GTM-3 cells” value was not above 5 µM. In the case of [Occ][Sni]F[mpa]L[Hyp][NMeL]DRI-NH2 (reading uncertain; also: printed as Occ-Sni-Phe-mpa-Leu-Hyp-Nml-Asp-Arg-Ile-NH2) [JAL-1888], the “EC50 group, cGMP in GTM-3 cells” value is not above 5 µM.

In the case of B10, the “EC50 group, cGMP in GTM-3 cells” value is not above 5 µM. Under Octanoyl-[aze]FGLKLDRI-NH2 (reading uncertain; also: printed as Occ-aze-Phe-Gly-Leu-Lys-Leu-Asp-Arg-Ile-NH2) [JAL-0740] stands not above 15 µM. Under [Occ][Sni]F[abu(pip)]L[Hyp][NMeL]DRI-NH2 [JAL-1879] stands not above 5 µM. For B11 the value was not above 1 µM. With [Occ][Sni]F[leu]L[Hyp][NMeL][Phg]RI-NH2 (reading uncertain; also: printed as Occ-Sni-Phe-leu-Leu-Hyp-Nml-Phg-Arg-Ile-NH2) [JAL-1858], the “EC50 group, cGMP in GTM-3 cells” value is not above 15 µM. For [Occ][Sni]F[hse]L[Hyp][NMeL]DRI-NH2 (reading uncertain; also: printed as Occ-Sni-Phe-hse-Leu-Hyp-Nml-Asp-Arg-Ile-NH2) [JAL-1878] the value was not above 5 µM; for [Occ][Sni]F[Fhy]L[Hyp][NMeL]DRI-NH2 [JAL-1882], not above 5 µM; for B12, not above 15 µM. Under B13 stands not above 5 µM. For [Oct][Sni]F[leu]L[Pro(trans-4-NH2)][NMeL]VR[Che] (reading uncertain; also: printed as Oct-Sni-Phe-leu-Leu-Tap-Nml-Val-Arg-Che) [JAL-1849] the value was not above 5 µM; for [Occ][Sni]F[leu]L[Hyp][NMeL][Gly(cPent)]RI-NH2 (reading uncertain; also: printed as Occ-Sni-Phe-leu-Leu-Hyp-Nml-Cpg-Arg-Ile-NH2) [JAL-1859], not above 5 µM.
